{"source": "patent US20170056486A1", "key": {"HLA-A*24 (human) [1]": {"biological_target": "HLA-A*24 (human)", "test": "UV-exchange ELISA (anti-b2m); yield >=75%"}, "HLA-A*24 (human) [2]": {"biological_target": "HLA-A*24 (human)", "test": "UV-exchange ELISA (anti-b2m); yield 50%-75%"}}}
{"binder": "YYTQYSQTI", "values": [{"measurement": "peptide exchange yield", "setting": "HLA-A*24 (human) [1]", "value": "> 75", "unit": "%"}]}
{"binder": "TYTFLKETF", "values": [{"measurement": "peptide exchange yield", "setting": "HLA-A*24 (human) [1]", "value": "> 75", "unit": "%"}]}
{"binder": "QYILAVPVL", "values": [{"measurement": "peptide exchange yield", "setting": "HLA-A*24 (human) [1]", "value": "> 75", "unit": "%"}]}
{"binder": "SYLTWHQQI", "values": [{"measurement": "peptide exchange yield", "setting": "HLA-A*24 (human) [1]", "value": "> 75", "unit": "%"}]}
{"binder": "LFITGGQFF", "values": [{"measurement": "peptide exchange yield", "setting": "HLA-A*24 (human) [1]", "value": "> 75", "unit": "%"}]}
{"binder": "QYLDGTWSL", "values": [{"measurement": "peptide exchange yield", "setting": "HLA-A*24 (human) [1]", "value": "> 75", "unit": "%"}]}
{"binder": "AYVIAVHLF", "values": [{"measurement": "peptide exchange yield", "setting": "HLA-A*24 (human) [1]", "value": "> 75", "unit": "%"}]}
{"binder": "GYIEHFSLW", "values": [{"measurement": "peptide exchange yield", "setting": "HLA-A*24 (human) [1]", "value": "> 75", "unit": "%"}]}
{"binder": "VYPFDWQYI", "values": [{"measurement": "peptide exchange yield", "setting": "HLA-A*24 (human) [1]", "value": "> 75", "unit": "%"}]}
{"binder": "KYIDYLMTW", "values": [{"measurement": "peptide exchange yield", "setting": "HLA-A*24 (human) [1]", "value": "> 75", "unit": "%"}]}
{"binder": "RYPALFPVL", "values": [{"measurement": "peptide exchange yield", "setting": "HLA-A*24 (human) [1]", "value": "> 75", "unit": "%"}]}
{"binder": "VYEAMVPLF", "values": [{"measurement": "peptide exchange yield", "setting": "HLA-A*24 (human) [1]", "value": "> 75", "unit": "%"}]}
{"binder": "EYLHNCSYF", "values": [{"measurement": "peptide exchange yield", "setting": "HLA-A*24 (human) [1]", "value": "> 75", "unit": "%"}]}
{"binder": "RYLINSYDF", "values": [{"measurement": "peptide exchange yield", "setting": "HLA-A*24 (human) [1]", "value": "> 75", "unit": "%"}]}
{"binder": "VFASLPGFLF", "values": [{"measurement": "peptide exchange yield", "setting": "HLA-A*24 (human) [1]", "value": "> 75", "unit": "%"}]}
{"binder": "SYGTVSQIF", "values": [{"measurement": "peptide exchange yield", "setting": "HLA-A*24 (human) [1]", "value": "> 75", "unit": "%"}]}
{"binder": "SYGTVSQI", "values": [{"measurement": "peptide exchange yield", "setting": "HLA-A*24 (human) [1]", "value": "> 75", "unit": "%"}]}
{"binder": "VYVPFGGKSMITF", "values": [{"measurement": "peptide exchange yield", "setting": "HLA-A*24 (human) [1]", "value": "> 75", "unit": "%"}]}
{"binder": "VYGVPTPHF", "values": [{"measurement": "peptide exchange yield", "setting": "HLA-A*24 (human) [1]", "value": "> 75", "unit": "%"}]}
{"binder": "VYTPVASRQSL", "values": [{"measurement": "peptide exchange yield", "setting": "HLA-A*24 (human) [2]", "value": "50 to 75", "unit": "%"}]}
{"binder": "QYTPHSHQF", "values": [{"measurement": "peptide exchange yield", "setting": "HLA-A*24 (human) [2]", "value": "50 to 75", "unit": "%"}]}
{"binder": "VYIAELEKI", "values": [{"measurement": "peptide exchange yield", "setting": "HLA-A*24 (human) [2]", "value": "50 to 75", "unit": "%"}]}
{"binder": "KYPASSSVF", "values": [{"measurement": "peptide exchange yield", "setting": "HLA-A*24 (human) [2]", "value": "50 to 75", "unit": "%"}]}
{"binder": "AYLPPLQQVF", "values": [{"measurement": "peptide exchange yield", "setting": "HLA-A*24 (human) [2]", "value": "50 to 75", "unit": "%"}]}
{"binder": "RYKPGEPITF", "values": [{"measurement": "peptide exchange yield", "setting": "HLA-A*24 (human) [2]", "value": "50 to 75", "unit": "%"}]}
{"binder": "RYFDVGLHNF", "values": [{"measurement": "peptide exchange yield", "setting": "HLA-A*24 (human) [2]", "value": "50 to 75", "unit": "%"}]}
{"binder": "QYIEELQKF", "values": [{"measurement": "peptide exchange yield", "setting": "HLA-A*24 (human) [2]", "value": "50 to 75", "unit": "%"}]}
{"binder": "TFSDVEAHF", "values": [{"measurement": "peptide exchange yield", "setting": "HLA-A*24 (human) [2]", "value": "50 to 75", "unit": "%"}]}
{"binder": "KYTEKLEEI", "values": [{"measurement": "peptide exchange yield", "setting": "HLA-A*24 (human) [2]", "value": "50 to 75", "unit": "%"}]}
{"binder": "IYGEKTYAF", "values": [{"measurement": "peptide exchange yield", "setting": "HLA-A*24 (human) [2]", "value": "50 to 75", "unit": "%"}]}
